The text below walks through data of PMC5245964.

What all share (test): AUC; sedimentation velocity, 42,000 rpm, 20°C, 0.3–0.5 mg/mL in buffer HST300, continuous c(s) distribution (SEDFIT)
Experiment [1] deals with MBP-Mis18β (insect-cell-expressed) (human) (UniProt O43482).
The target in experiment [2] is Mis18α:Mis18β complex (insect-cell-expressed) (human) (UniProt Q9NYP9). The conditions noted are these: scale: M18BP1^1–140-MBP per Mis18α:Mis18β hexamer.
The target in experiment [3] is 6His-Mis18β (insect-cell-expressed) (human) (UniProt O43482).
Chain of 6His-Mis18β (insect-cell-expressed) (human) (O43482 whole entry): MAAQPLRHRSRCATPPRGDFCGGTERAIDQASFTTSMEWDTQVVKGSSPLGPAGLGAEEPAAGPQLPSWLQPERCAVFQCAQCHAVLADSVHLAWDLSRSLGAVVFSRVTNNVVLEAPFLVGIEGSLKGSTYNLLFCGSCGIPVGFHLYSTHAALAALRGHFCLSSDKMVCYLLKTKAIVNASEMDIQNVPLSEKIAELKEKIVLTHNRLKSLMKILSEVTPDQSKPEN
Experiment [4] addresses Mis18β (insect-cell-expressed, untagged) (human) (UniProt O43482).

Chain of Mis18α:Mis18β complex (insect-cell-expressed) (human) (Q9NYP9 whole entry, chain 1 of 2): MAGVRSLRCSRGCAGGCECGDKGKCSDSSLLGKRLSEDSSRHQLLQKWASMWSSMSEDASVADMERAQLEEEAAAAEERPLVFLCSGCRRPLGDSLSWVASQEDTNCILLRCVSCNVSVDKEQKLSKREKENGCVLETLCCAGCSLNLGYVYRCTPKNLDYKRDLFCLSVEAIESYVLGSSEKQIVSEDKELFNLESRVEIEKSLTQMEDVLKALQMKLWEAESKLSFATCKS
Chain of Mis18α:Mis18β complex (insect-cell-expressed) (human) (O43482 whole entry, chain 2 of 2, further chain): as the sequence (O43482 whole entry) above
Chain of MBP-Mis18α (insect-cell-expressed) (Q9NYP9 whole entry): as the sequence (Q9NYP9 whole entry, chain 1 of 2) above
Chain of Mis18α (insect-cell-expressed, 6His cleaved) (Q9NYP9 whole entry): as the sequence (Q9NYP9 whole entry, chain 1 of 2) above
Chain of 6His-Mis18α (insect-cell-expressed) (Q9NYP9 whole entry): as the sequence (Q9NYP9 whole entry, chain 1 of 2) above
Chain of Mis18β (insect-cell-expressed, untagged) (human) (O43482 whole entry): as the sequence (O43482 whole entry) above
Chain of MBP-Mis18β (insect-cell-expressed) (human) (O43482 whole entry): as above
Chain of M18BP1^1–140-MBP (Q6P0N0 1-140): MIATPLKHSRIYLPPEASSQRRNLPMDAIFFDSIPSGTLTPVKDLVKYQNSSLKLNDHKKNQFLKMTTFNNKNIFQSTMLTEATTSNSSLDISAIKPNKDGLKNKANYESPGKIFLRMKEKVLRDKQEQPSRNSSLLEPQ

For “6His-Mis18α (insect-cell-expressed) (from UniProt Q9NYP9 1-233) (natural protein)”, the stoichiometry N (MBP-Mis18β per complex) in experiment [1] is 2.
In general, stoichiometry N refers to the number of molecules, sites or subunits per partner or assembly. In experiment [2], “M18BP1^1–140-MBP (from UniProt Q6P0N0 1-140) (domain or fragment)” yielded a stoichiometry N of 2.
Take “MBP-Mis18α (insect-cell-expressed) (from UniProt Q9NYP9 1-233) (natural protein)”: the stoichiometry N (MBP-Mis18α per complex) in experiment [3] is 4.
Take “Mis18α (insect-cell-expressed, 6His cleaved) (from UniProt Q9NYP9 1-233) (natural protein)”: the stoichiometry N (Mis18α per Mis18β (4:2 hexamer)) in experiment [4] stood at 2.
